The text below walks through data of patent publication US20260078175A1 (Boehringer Ingelheim, published 2026).

Assay [1] concerns the target Cynomolgus Sema3A (cynomolgus). Kind of assay: SPR (GLM sensorchip), antibody captured on Human Fab Binder, Sema3A as analyte, 1:1 Langmuir fit.
For assay [2], the target named is Cynomolgus Sema3A (cynomolgus). The experiment in a line: SPR (BioRad GLM chip), antibody captured on goat anti-human IgG, Sema3A as analyte, 1:1 Langmuir fit.
The target in assay [3] is T1, Human semaphorin 3A (Sema3A) (human, UniProt Q14563 21-771).
T1 construct: also called human Sema3A; HuSema3A
T1 sequence: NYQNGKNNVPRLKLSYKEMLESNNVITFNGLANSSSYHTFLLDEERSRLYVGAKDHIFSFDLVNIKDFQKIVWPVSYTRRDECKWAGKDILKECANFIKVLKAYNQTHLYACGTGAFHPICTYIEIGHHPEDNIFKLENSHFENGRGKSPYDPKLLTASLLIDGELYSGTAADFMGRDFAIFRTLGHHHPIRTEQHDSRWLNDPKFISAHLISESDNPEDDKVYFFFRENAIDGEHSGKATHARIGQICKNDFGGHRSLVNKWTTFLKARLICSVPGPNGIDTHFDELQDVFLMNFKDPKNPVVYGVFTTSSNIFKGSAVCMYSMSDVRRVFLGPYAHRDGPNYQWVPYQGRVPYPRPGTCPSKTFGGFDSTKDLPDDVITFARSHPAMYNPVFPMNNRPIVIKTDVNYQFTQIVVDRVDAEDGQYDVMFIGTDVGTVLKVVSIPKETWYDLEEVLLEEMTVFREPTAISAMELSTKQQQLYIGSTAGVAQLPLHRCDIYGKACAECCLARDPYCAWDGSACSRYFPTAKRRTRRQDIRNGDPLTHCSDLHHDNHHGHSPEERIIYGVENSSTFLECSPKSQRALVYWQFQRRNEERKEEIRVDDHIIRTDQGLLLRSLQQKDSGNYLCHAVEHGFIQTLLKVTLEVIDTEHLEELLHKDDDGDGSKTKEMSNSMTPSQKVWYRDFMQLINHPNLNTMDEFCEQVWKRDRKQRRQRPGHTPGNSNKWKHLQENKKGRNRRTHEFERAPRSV
Kind of assay: SPR (GLM sensorchip), antibody captured on Human Fab Binder, Sema3A as analyte, 1:1 Langmuir fit. The protocol: (§1) The running buffer for this experiment and all dilutions (except where stated) were done in PBS-T-EDTA with 0.01% Tween20 [100 ul of 100% Tween20 was added to 2L of PBS-T-EDTA to make final Tween 20 concentration of 0.01%]. The GLM sensorchip was normalized and pre-conditioned as per the manufacturer's recommendations. The sensorchip was activated with equal mixture of EDC/s-NHS in the horizontal direction for 300 sec at a flow rate of 30 μl/min and immobilized with Human Fab Binder (10 μg/ml in 10 mM acetate pH 5.0) in the horizontal direction for 300 sec at a flowrate of 30 μl/min resulting in ˜6739-7414 RU of Human Fab Binder on the surface. The sensorchip was deactivated with 1M ethanolamine HCl in the horizontal direction for 300 sec at a flowrate of 30 μl/min. The sensorchip was stabilized with 18 sec of 10 mM glycine, pH 2.1 at a flowrate of 100 μl/min 1 time horizontally and 1 time vertically.
(§2) The inventors tested an exemplary antibody according to the invention (clone I). Said antibody (0.5 μg/ml) was captured on the Human Fab Binder surface vertically for 300 sec at a flowrate of 25 μl/min resulting ˜180 RU capture level. The baseline was stabilized by injecting PBS-T-EDTA for 60 sec at a flowrate of 40 μl/min horizontally. The analyte was injected horizontally over the captured antibody for 600 sec at a flowrate of 40 μl/min and a dissociation for 7200 sec. The concentrations of the analytes were 0 nM, 0.625 nM, 1.25 nM, 2.5 nM, 5 nM, and 10 nM. The surface was regenerated by injecting 10 mM glycine, pH 2.1 for 18 sec at a flowrate of 100 μl/min one time horizontally and one time vertically. PBS-T-EDTA was injected for 60 sec at a flowrate of 25 μl/min one time vertically.
(§3) The interspot (interactions with sensor surface) and blank (PBS-T-EDTA with 0.01% Tween20 or 0 nM analyte) were subtracted from the raw data.

Assay [4] has as its target T2, Mouse Sema3A (mouse, UniProt O08665 21-772, limits assumed).
T2 construct: Construct not described
T2 sequence (looked up): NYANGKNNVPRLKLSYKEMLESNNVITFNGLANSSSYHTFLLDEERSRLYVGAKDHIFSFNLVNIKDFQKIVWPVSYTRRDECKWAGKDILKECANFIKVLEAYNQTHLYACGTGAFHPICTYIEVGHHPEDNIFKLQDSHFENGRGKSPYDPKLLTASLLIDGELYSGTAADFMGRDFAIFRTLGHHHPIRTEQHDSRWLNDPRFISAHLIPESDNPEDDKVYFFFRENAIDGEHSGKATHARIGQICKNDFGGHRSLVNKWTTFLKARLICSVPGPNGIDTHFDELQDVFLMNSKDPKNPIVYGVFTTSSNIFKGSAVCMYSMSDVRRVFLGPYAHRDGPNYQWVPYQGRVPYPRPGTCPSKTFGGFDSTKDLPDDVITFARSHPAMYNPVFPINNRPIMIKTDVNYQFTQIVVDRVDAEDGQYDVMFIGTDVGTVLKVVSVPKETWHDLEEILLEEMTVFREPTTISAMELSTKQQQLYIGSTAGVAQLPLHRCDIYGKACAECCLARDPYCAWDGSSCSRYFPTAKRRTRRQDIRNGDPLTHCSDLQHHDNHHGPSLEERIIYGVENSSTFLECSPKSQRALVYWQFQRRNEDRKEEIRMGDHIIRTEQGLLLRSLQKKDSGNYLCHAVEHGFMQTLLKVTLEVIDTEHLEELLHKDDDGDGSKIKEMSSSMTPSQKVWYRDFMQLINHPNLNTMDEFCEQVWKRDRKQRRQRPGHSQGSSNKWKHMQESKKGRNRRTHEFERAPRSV
Described as above. The protocol:
as §1, §2, §3

The target in assay [5] is T3, Rat Sema3A (rat, UniProt Q63548 21-772, limits assumed).
T3 construct: Construct not described
T3 sequence (looked up): T2 sequence (looked up) with E102K, I455V, P559H, M604V, I669T
The description is as above. The protocol: as §1, §2, §3

In assay [6] the target is T4, Rabbit Sema3A (rabbit, UniProt G1T285 21-770).
T4 construct: Construct not described
T4 sequence: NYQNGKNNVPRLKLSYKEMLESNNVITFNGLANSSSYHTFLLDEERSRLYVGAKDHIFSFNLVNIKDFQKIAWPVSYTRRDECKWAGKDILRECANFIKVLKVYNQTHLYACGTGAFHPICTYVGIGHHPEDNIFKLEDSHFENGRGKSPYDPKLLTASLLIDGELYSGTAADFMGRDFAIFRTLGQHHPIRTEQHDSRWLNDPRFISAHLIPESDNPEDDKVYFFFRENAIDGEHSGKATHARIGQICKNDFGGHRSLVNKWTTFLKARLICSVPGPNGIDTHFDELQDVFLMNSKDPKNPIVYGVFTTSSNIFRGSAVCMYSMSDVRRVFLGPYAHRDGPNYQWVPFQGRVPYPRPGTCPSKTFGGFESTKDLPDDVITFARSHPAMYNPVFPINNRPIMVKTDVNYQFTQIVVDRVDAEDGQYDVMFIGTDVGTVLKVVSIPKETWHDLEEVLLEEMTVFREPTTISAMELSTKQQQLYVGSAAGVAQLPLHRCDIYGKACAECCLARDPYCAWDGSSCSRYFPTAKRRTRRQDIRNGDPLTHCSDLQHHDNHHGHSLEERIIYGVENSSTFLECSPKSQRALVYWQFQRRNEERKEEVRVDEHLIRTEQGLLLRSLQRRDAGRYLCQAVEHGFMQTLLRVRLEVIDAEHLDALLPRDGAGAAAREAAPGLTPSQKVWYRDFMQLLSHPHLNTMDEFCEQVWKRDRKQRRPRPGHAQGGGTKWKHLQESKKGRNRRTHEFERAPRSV
The description is as above. The protocol: as §1, §2, §3

Assay [7] addresses T1, Human semaphorin 3A (Sema3A). Kind of assay: SPR (BioRad GLM chip), antibody captured on goat anti-human IgG, Sema3A as analyte, 1:1 Langmuir fit.
Assay [8] concerns the target T2, Mouse Sema3A. The description is as above.
Assay [9] concerns the target T3, Rat Sema3A. The description is as above.
The target of assay [10] is T4, Rabbit Sema3A. The assay is described as above.
Assay [11] addresses T1, Human semaphorin 3A (Sema3A). The experiment in a line: SPR (BioRad GLM chip), antibody captured on anti-human Fab antibody, human Sema3A as analyte, 1:1 Langmuir fit. The protocol:
A high surface density of anti-human Fab antibody (GE Healthcare) was immobilized over a GLM chip (BioRad) via direct amine coupling over 6 horizontal channels according to the BioRad manufacturer's manual.
The antibody of the invention (clone 1) and the Chiome antibodies were captured over the anti-human Fab antibody surface over 5 of 6 vertical channels with a minimum surface density for the kinetic binding assay. Human Sema3A was prepared in PBS-T-EDTA buffer (BioRad) at concentrations of 100, 50, 25, 12.5, 10, 6.25, 5, 2.5, 1.25, 0.625 and 0 nM. A PBS-T-EDTA buffer injection was used as a double reference for the kinetic data analysis. Each of the human Sema3A solutions and PBS-T-EDTA buffer were injected simultaneously over the 6 horizontal channels for 10 min at a flow rate of 40 μL/min followed by 2 hr dissociation phase. The surfaces were regenerated by an 18 sec injection of 10 mM pH 2.1 glycine HCl (GE Healthcare) at a flow rate of 100 μL/min followed by an injection of 60 sec PBS-T-EDTA at a flow rate of 25 μL/min.

Numbering of substitutions follows the chain as printed.

B1: Antibody of the invention (clone I) (antibody, human IgG1, kappa, L234A L235A, V domains shown)
VH: EVQLVESGGGLVQPGGSLRLSCAASGFTFSSYYMSWVRQAPGKGLEWVSTIIKSGGYAYYPDSVKDRFTISRDNSKNTLYLQMSSLRAEDTAVYYCVRGGQGAMDYWGQGTTVTVSS
VL: EIVLTQSPATLSLSPGERATLSCRASQSIGDYLHWYQQKPGQAPRLLIKYASQSISGIPARFSGSGSGTDFTLTITSLEPEDFAVYYCQQGYSFPYTFGGGTKLEIKR
notes: also called clone 1; anti-Sema3A antibody of the invention
As for B1, the Kd in assay [1] was determined as 0.028 nM; in assay [2], 0.035 nM; in assay [3], 0.029 nM; with Mouse Sema3A [4], 0.027 nM; in the assay with Rat Sema3A [5] it was 0.027 nM; with Rabbit Sema3A [6], 0.042 nM. The Kd was 0.0347 nM in [7]; 0.035 nM with Mouse Sema3A [8]; 0.0235 nM with Rat Sema3A [9]; 0.0401 nM with Rabbit Sema3A [10]; 0.032 nM in assay [11].
